± gives the uncertainty stated by the source.
B1: Double-stranded RNA-specific adenosine deaminase, residues 296 to 358; numbered along this chain, P55265 (parent)
chain: MAEIKEKICDYLFNVSDSSALNLAKNIGLTKARDINAVLIDMERQGDVYRQGTTPPIWHLTDK

Variants of: B1
Assay: abundance fitness (aPCA) (normalised: wild type 0, dead -1); higher = more abundant; growth selection in yeast, the domain comes from the species named
Conditions: Homo sapiens

Variant	abundance fitness
MAEIKEKICDYLFNVSDSSALNLAKNIGLTKARDINAVLIDMERQGDVYRQGTTPPINHLTDK [W58N]	-0.296 ± 0.091
MAEIKEKICDYLFNVSDSSALNLAKNIGLTKARDINAVLIDMERQGDVYRQGTTPPIVHLTDK [W58V]	-0.488 ± 0.053
MAEIKEKICDYLFNVSDSSALNLAKNIGLTKARDINAVLIDMERQGDVYRQGTTPPIQHLTDK [W58Q]	-0.152 ± 0.071
MAEIKEKICDYLFNVSDSSALNLAKNIGLTKARDINAVLIDMERQGDVYRQGTTPPISHLTDK [W58S]	-0.254 ± 0.054
MAEIKEKICDYLFNVSDSSALNLAKNIGLTKARDINAVLIDMERQGDVYRQGTTPPIHHLTDK [W58H]	-0.278 ± 0.093
MAEIKEKICDYLFNVSDSSALNLAKNIGLTKARDINAVLIDMERQGDVYRQGTTPPIIHLTDK [W58I]	-0.366 ± 0.1
MAEIKEKICDYLFNVSDSSALNLAKNIGLTKARDINAVLIDMERQGDVYRQGTTPPIYHLTDK [W58Y]	-0.095 ± 0.067
MAEIKEKICDYLFNVSDSSALNLAKNIGLTKARDINAVLIDMERQGDVYRQGTTPPITHLTDK [W58T]	-0.251 ± 0.043
MAEIKEKICDYLFNVSDSSALNLAKNIGLTKARDINAVLIDMERQGDVYRQGTTPPIRHLTDK [W58R]	-0.242 ± 0.054
MAEIKEKICDYLFNVSDSSALNLAKNIGLTKARDINAVLIDMERQGDVYRQGTTPPIMHLTDK [W58M]	-0.362 ± 0.06
MAEIKEKICDYLFNVSDSSALNLAKNIGLTKARDINAVLIDMERQGDVYRQGTTPPIPHLTDK [W58P]	-0.409 ± 0.097
MAEIKEKICDYLFNVSDSSALNLAKNIGLTKARDINAVLIDMERQGDVYRQGTTPPIKHLTDK [W58K]	-0.303 ± 0.042
MAEIKEKICDYLFNVSDSSALNLAKNIGLTKARDINAVLIDMERQGDVYRQGTTPPIWHLTEK [D62E]	0.072 ± 0.078
MAEIKEKICDYLFNVSDSSALNLAKNIGLTKARDINAVLIDMERQGDVYRQGTTPPIWHLTYK [D62Y]	-0.437 ± 0.077
MAEIKEKICDYLFNVSDSSALNLAKNIGLTKARDINAVLIDMERQGDVYRQGTTPPIWHLTPK [D62P]	-0.333 ± 0.094
MAEIKEKICDYLFNVSDSSALNLAKNIGLTKARDINAVLIDMERQGDVYRQGTTPPIWHLTNK [D62N]	-0.432 ± 0.092
MAEIKEKICDYLFNVSDSSALNLAKNIGLTKARDINAVLIDMERQGDVYRQGTTPPIWHLTSK [D62S]	-0.083 ± 0.048
MAEIKEKICDYLFNVSDSSALNLAKNIGLTKARDINAVLIDMERQGDVYRQGTTPPIWHLTGK [D62G]	-0.19 ± 0.043
MAEIKEKICDYLFNVSDSSALNLAKNIGLTKARDINAVLIDMERQGDVYRQGTTPPIWHLTAK [D62A]	0.053 ± 0.046
MAEIKEKICDYLFNVSDSSALNLAKNIGLTKARDINAVLIDMERQGDVYRQGTTPPIWHLTQK [D62Q]	0.017 ± 0.088
MAEIKEKICDYLFNVSDSSALNLAKNIGLTKARDINAVLIDMERQGDVYRQGTTPPIWHLTMK [D62M]	-0.409 ± 0.11

Variant	abundance fitness
MAEIKEKICDYLFNVSDSSALNLAKNIGLTKARDINAVLIDMERQGDVYRQGTTPPIWHLTWK [D62W]	-0.445 ± 0.087
MAEIKEKICDYLFNVSDSSALNLAKNIGLTKARDINAVLIDMERQGDVYRQGTTPPIWHLTTK [D62T]	-0.15 ± 0.074
MAEIKEKICDYLFNVSDSSALNLAKNIGLTKARDINAVLIDMERQGDVYRQGTTPPIWHLTIK [D62I]	-0.708 ± 0.15
MAEIKEKICDYLFNVSDSSALNLAKNIGLTKARDINAVLIDMERQGDVYRQGTTPPIWHLTCK [D62C]	-0.185 ± 0.062
MAEIKEKICDYLFNVSDSSALNLAKNIGLTKARDINAVLIDMERQGDVYRQGTTPPIWHLTRK [D62R]	-0.167 ± 0.052
MAEIKEKICDYLFNVSDSSALNLAKNIGLTKARDINAVLIDMERQGDVYRQGTTPPIWHLTLK [D62L]	-0.437 ± 0.063
MAEIKEKICDYLFNVSDSSALNLAKNIGLTKARDINAVLIDMERQGDVYRQGTTPPIWHLTKK [D62K]	0.002 ± 0.057
MAEIKEKICDYLFNVSDSSALNLAKNIGLTKARDINAVLIDMERQGDVYRQGTTPPIWHFTDK [L60F]	-0.598 ± 0.13
MAEIKEKICDYLFNVSDSSALNLAKNIGLTKARDINAVLIDMERQGDVYRQGTTPPIWHETDK [L60E]	-0.226 ± 0.082
MAEIKEKICDYLFNVSDSSALNLAKNIGLTKARDINAVLIDMERQGDVYRQGTTPPIWHYTDK [L60Y]	-0.577 ± 0.072
MAEIKEKICDYLFNVSDSSALNLAKNIGLTKARDINAVLIDMERQGDVYRQGTTPPIWHVTDK [L60V]	-0.516 ± 0.062
MAEIKEKICDYLFNVSDSSALNLAKNIGLTKARDINAVLIDMERQGDVYRQGTTPPIWHQTDK [L60Q]	-0.764 ± 0.16
MAEIKEKICDYLFNVSDSSALNLAKNIGLTKARDINAVLIDMERQGDVYRQGTTPPIWHNTDK [L60N]	-0.425 ± 0.099
MAEIKEKICDYLFNVSDSSALNLAKNIGLTKARDINAVLIDMERQGDVYRQGTTPPIWHWTDK [L60W]	-0.793 ± 0.082
MAEIKEKICDYLFNVSDSSALNLAKNIGLTKARDINAVLIDMERQGDVYRQGTTPPIWHGTDK [L60G]	-0.436 ± 0.057
MAEIKEKICDYLFNVSDSSALNLAKNIGLTKARDINAVLIDMERQGDVYRQGTTPPIWHITDK [L60I]	-0.628 ± 0.12
MAEIKEKICDYLFNVSDSSALNLAKNIGLTKARDINAVLIDMERQGDVYRQGTTPPIWHCTDK [L60C]	-0.662 ± 0.1
MAEIKEKICDYLFNVSDSSALNLAKNIGLTKARDINAVLIDMERQGDVYRQGTTPPIWHRTDK [L60R]	-0.45 ± 0.044
MAEIKEKICDYLFNVSDSSALNLAKNIGLTKARDINAVLIDMERQGDVYRQGTTPPIWHMTDK [L60M]	-0.295 ± 0.06
MAEIKEKICDYLFNVSDSSALNLAKNIGLTKARDINAVLIDMERQGDVYRQGTTPPIWHTTDK [L60T]	-0.551 ± 0.076
MAEIKEKICDYLFNVSDSSALNLAKNIGLTKARDINAVLIDMERQGDVYRQGTTPPIWHSTDK [L60S]	-0.437 ± 0.059

Reference: the Human Domainome abundance scans (Beltran et al. 2025)
